The source of these data is patent US20210155701A1 (Chugai, published 2021).

The chains are these.
T1: soluble human IL-6R (human, UniProt P08887 20-357)
T1 construct: also called hsIL-6R; recombinant human IL6R
T1 sequence: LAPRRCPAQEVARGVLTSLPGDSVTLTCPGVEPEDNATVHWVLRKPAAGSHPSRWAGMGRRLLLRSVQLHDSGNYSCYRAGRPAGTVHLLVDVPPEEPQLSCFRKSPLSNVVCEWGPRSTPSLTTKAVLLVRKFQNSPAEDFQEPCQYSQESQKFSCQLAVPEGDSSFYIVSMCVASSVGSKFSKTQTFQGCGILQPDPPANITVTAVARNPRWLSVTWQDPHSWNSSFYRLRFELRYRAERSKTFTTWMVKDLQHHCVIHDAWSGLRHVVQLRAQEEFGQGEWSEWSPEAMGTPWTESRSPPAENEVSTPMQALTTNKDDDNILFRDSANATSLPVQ

T2: human CD3ed-Fc (biotin-labeled human CD3 epsilon and human CD3 delta linked to a human antibody constant … (human, biotin-labeled (BirA co-expression); site not stated)
T2 construct: also called CD3 epsilon delta heterodimer fused with the antibody constant region
T2 chain 1: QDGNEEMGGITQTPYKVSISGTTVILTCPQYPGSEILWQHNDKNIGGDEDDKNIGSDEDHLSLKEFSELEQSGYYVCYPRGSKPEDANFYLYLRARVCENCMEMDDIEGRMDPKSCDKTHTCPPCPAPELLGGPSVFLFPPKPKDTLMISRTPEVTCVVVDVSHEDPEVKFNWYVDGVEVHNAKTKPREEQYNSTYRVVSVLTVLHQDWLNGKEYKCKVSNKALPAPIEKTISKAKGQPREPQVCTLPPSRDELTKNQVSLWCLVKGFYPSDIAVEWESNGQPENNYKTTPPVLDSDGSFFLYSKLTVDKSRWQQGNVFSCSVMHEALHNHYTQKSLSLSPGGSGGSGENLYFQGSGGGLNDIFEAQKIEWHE
T2 chain 2: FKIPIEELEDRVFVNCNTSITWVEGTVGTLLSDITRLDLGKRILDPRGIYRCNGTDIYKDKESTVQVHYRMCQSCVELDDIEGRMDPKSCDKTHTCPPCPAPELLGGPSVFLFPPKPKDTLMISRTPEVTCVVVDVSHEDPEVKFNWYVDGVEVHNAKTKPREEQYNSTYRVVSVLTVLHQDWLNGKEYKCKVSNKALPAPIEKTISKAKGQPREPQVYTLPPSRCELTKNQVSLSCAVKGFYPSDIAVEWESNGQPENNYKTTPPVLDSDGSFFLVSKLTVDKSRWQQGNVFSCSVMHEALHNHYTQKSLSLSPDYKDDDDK

B1: 20A11-G1m/VK1-39-k0MT (antibody, human IgG1, kappa, V domains shown)
VH: EVQLVESGGGLVQPGGSLRLSCAASGSVFKINVMAWYRQAPGKGRELVAGIISGGSTSYADSVKGRFTISRDNAKNTLYLQMNSLRPEDTAVYYCAFITTESDYDLGRRYWGQGTLVTVSS
VL: DIQMTQSPSSLSASVGDRVTITCRASQSISSYLNWYQQKPGKAPKLLIYAASSLQSGVPSRFSGSGSGTDFTLTISSLQPEDFATYYCLQFDSYPLTFGGGTKVEIKR
B2: 20A11-G1m/VL1-44-lamL (antibody, human IgG1, lambda, V domains shown)
VH: EVQLVESGGGLVQPGGSLRLSCAASGSVFKINVMAWYRQAPGKGRELVAGIISGGSTSYADSVKGRFTISRDNAKNTLYLQMNSLRPEDTAVYYCAFITTESDYDLGRRYWGQGTLVTVSS
VL: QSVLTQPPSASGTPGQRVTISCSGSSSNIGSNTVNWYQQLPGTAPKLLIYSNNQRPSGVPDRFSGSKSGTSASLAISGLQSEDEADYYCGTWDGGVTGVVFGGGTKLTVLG
B3: 20A11-G1m/VL1-40-lamL (antibody, human IgG1, lambda, V domains shown)
VH: EVQLVESGGGLVQPGGSLRLSCAASGSVFKINVMAWYRQAPGKGRELVAGIISGGSTSYADSVKGRFTISRDNAKNTLYLQMNSLRPEDTAVYYCAFITTESDYDLGRRYWGQGTLVTVSS
VL: QSVLTQPPSVSGAPGQRVTISCTGSSSNIGAGYDVHWYQQLPGTAPKLLIYGNSNRPSGVPDRFSGSKSGTSASLAITGLQAEDEADYYCQSYDNSLNAVVFGGGTKLTVLG
B4: 20A11-G1m/VL2-14-lamL (antibody, human IgG1, lambda, V domains shown)
VH: EVQLVESGGGLVQPGGSLRLSCAASGSVFKINVMAWYRQAPGKGRELVAGIISGGSTSYADSVKGRFTISRDNAKNTLYLQMNSLRPEDTAVYYCAFITTESDYDLGRRYWGQGTLVTVSS
VL: QSALTQPASVSGSPGQSITISCTGTSSDVGGYNYVSWYQQHPGKAPKLMIYEVSNRPSGVSNRFSGSKSGNTASLTISGLQAEDEADYYCSSYRSGYTLVVFGGGTKLTVLG
B5: 20A11-G1m/VK2-28-k0MT (antibody, human IgG1, kappa, V domains shown)
VH: EVQLVESGGGLVQPGGSLRLSCAASGSVFKINVMAWYRQAPGKGRELVAGIISGGSTSYADSVKGRFTISRDNAKNTLYLQMNSLRPEDTAVYYCAFITTESDYDLGRRYWGQGTLVTVSS
VL: not shown
B6: 20A11-G1m/VL3-21-lamL (antibody, human IgG1, lambda, V domains shown)
VH: EVQLVESGGGLVQPGGSLRLSCAASGSVFKINVMAWYRQAPGKGRELVAGIISGGSTSYADSVKGRFTISRDNAKNTLYLQMNSLRPEDTAVYYCAFITTESDYDLGRRYWGQGTLVTVSS
VL: SYVLTQPPSVSVAPGKTARITCGGNNIGSKSVHWYQQKPGQAPVLVIYYDSDRPSGIPERFSGSNSGNTATLTISRVEAGDEADYYCQAWDSSTDVVFGGGTKLTVLG
B7: 20A11hu-G1m/VL1-40-lamL (antibody, human IgG1, lambda, V domains shown)
VH: EVQLVESGGGLVQPGGSLRLSCAASGSVFKINVMAWVRQAPGKGLEWVAGIISGGSTSYADSVKGRFTISRDNAKNTLYLQMNSLRPEDTAVYYCAFITTESDYDLGRRYWGQGTLVTVSS
VL: QSVLTQPPSVSGAPGQRVTISCTGSSSNIGAGYDVHWYQQLPGTAPKLLIYGNSNRPSGVPDRFSGSKSGTSASLAITGLQAEDEADYYCQSYDNSLNAVVFGGGTKLTVLG
B8: 20A11hu-G1m/VL2-14-lamL (antibody, human IgG1, lambda, V domains shown)
VH: EVQLVESGGGLVQPGGSLRLSCAASGSVFKINVMAWVRQAPGKGLEWVAGIISGGSTSYADSVKGRFTISRDNAKNTLYLQMNSLRPEDTAVYYCAFITTESDYDLGRRYWGQGTLVTVSS
VL: QSALTQPASVSGSPGQSITISCTGTSSDVGGYNYVSWYQQHPGKAPKLMIYEVSNRPSGVSNRFSGSKSGNTASLTISGLQAEDEADYYCSSYRSGYTLVVFGGGTKLTVLG
B9: 20A11hu-G1m/VK1-39-k0MT (antibody, human IgG1, kappa, V domains shown)
VH: EVQLVESGGGLVQPGGSLRLSCAASGSVFKINVMAWVRQAPGKGLEWVAGIISGGSTSYADSVKGRFTISRDNAKNTLYLQMNSLRPEDTAVYYCAFITTESDYDLGRRYWGQGTLVTVSS
VL: DIQMTQSPSSLSASVGDRVTITCRASQSISSYLNWYQQKPGKAPKLLIYAASSLQSGVPSRFSGSGSGTDFTLTISSLQPEDFATYYCLQFDSYPLTFGGGTKVEIKR
B10: 20A11hu-G1m/VL1-44-lamL (antibody, human IgG1, lambda, V domains shown)
VH: EVQLVESGGGLVQPGGSLRLSCAASGSVFKINVMAWVRQAPGKGLEWVAGIISGGSTSYADSVKGRFTISRDNAKNTLYLQMNSLRPEDTAVYYCAFITTESDYDLGRRYWGQGTLVTVSS
VL: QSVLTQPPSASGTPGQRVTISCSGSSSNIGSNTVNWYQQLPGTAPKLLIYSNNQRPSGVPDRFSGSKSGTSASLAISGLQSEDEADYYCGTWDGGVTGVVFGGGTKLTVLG
B11: 20A11hu-G1m/VK2-28-k0MT (antibody, human IgG1, kappa, V domains shown)
VH: EVQLVESGGGLVQPGGSLRLSCAASGSVFKINVMAWVRQAPGKGLEWVAGIISGGSTSYADSVKGRFTISRDNAKNTLYLQMNSLRPEDTAVYYCAFITTESDYDLGRRYWGQGTLVTVSS
VL: not shown
B12: bC3edL1R1N164H01 (VHH)
VHH: QVQLVESGGGLVQPGGSLRLSCAASGFTFDVYGMSWVRHSPGKGLEWVSTINWNGGSTYYAESMKGRFTISRDNAKNTVYLQMNSLKPEDTAVYYCAKFAPWDGDMEWGQGTQVTVSG
B13: bC3edL1R1N160H01 (VHH)
VHH: QVQLVESGGGLVQPGGSLRLSCAASGFTFNHCWMYWVRQAPGKGLEWVSVINTDGGSAYYADSVKGRFTISRDNAKNTLYLQMNSLKSEDTAVYYCARDWAPLVDYYYGMDYWGKGTLVTVSG
B14: bC3edL1R1N161H01 (VHH)
VHH: QVQLVESGGGLVQPGGSLRLSCAASGFPFDNYVMSWVRQAPGKGLEWISAISWNGGSTYYAESMKGRFTISRDNAKSTLYLQMNSLKSEDTAVYYCAKEPRVYYSGSPDYWGQGTQVTVSG
B15: IL6R90-G1m/VK2-28-k0MT (antibody, human IgG1, kappa, V domains shown)
VH: EVQLVESGGGLVQPGGSLRLSCAASGFTFDDYGMSWVRQAPGKALEWVSAISWNGNNTYYTESMKGRFTISRDNAKNTLYLQMNSLRPEDTAVYYCVKGSTAIVGVPPTYPDEYDYWGQGTLVTVSS
VL: not shown
notes: IgG antibody-like molecule
B16: IL6R90-G1m/VL2-14-lamL (antibody, human IgG1, lambda, V domains shown)
VH: EVQLVESGGGLVQPGGSLRLSCAASGFTFDDYGMSWVRQAPGKALEWVSAISWNGNNTYYTESMKGRFTISRDNAKNTLYLQMNSLRPEDTAVYYCVKGSTAIVGVPPTYPDEYDYWGQGTLVTVSS
VL: QSALTQPASVSGSPGQSITISCTGTSSDVGGYNYVSWYQQHPGKAPKLMIYEVSNRPSGVSNRFSGSKSGNTASLTISGLQAEDEADYYCSSYRSGYTLVVFGGGTKLTVLG
notes: IgG antibody-like molecule
B17: IL6R90-G1m/VL1-44-lamL (antibody, human IgG1, lambda, V domains shown)
VH: EVQLVESGGGLVQPGGSLRLSCAASGFTFDDYGMSWVRQAPGKALEWVSAISWNGNNTYYTESMKGRFTISRDNAKNTLYLQMNSLRPEDTAVYYCVKGSTAIVGVPPTYPDEYDYWGQGTLVTVSS
VL: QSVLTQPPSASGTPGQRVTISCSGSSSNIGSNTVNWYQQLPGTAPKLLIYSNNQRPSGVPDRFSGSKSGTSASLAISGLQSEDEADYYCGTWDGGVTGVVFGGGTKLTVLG
notes: IgG antibody-like molecule
B18: IL6R90-G1m/VL1-40-lamL (antibody, human IgG1, lambda, V domains shown)
VH: EVQLVESGGGLVQPGGSLRLSCAASGFTFDDYGMSWVRQAPGKALEWVSAISWNGNNTYYTESMKGRFTISRDNAKNTLYLQMNSLRPEDTAVYYCVKGSTAIVGVPPTYPDEYDYWGQGTLVTVSS
VL: QSVLTQPPSVSGAPGQRVTISCTGSSSNIGAGYDVHWYQQLPGTAPKLLIYGNSNRPSGVPDRFSGSKSGTSASLAITGLQAEDEADYYCQSYDNSLNAVVFGGGTKLTVLG
notes: IgG antibody-like molecule
B19: bC3edL1R1N160H01-G1mISHI01/VK1-39-k0MT (before protease treatment) (antibody, human IgG1, kappa, V domains shown)
VH: QVQLVESGGGLVQPGGSLRLSCAASGFTFNHCWMYWVRQAPGKGLEWVSVINTDGGSAYYADSVKGRFTISRDNAKNTLYLQMNSLKSEDTAVYYCARDWAPLVDYYYGMDYWGKGTLVTVSG
VL: DIQMTQSPSSLSASVGDRVTITCRASQSISSYLNWYQQKPGKAPKLLIYAASSLQSGVPSRFSGSGSGTDFTLTISSLQPEDFATYYCLQFDSYPLTFGGGTKVEIKR

The first test has as its target T1, soluble human IL-6R. The test can be described thus: BLI (Octet) as in Example 3. A general note: BLI is a label-free optical method that tracks binding on a fibre tip over time.
With B1, the binding result is reported as “binds”. On to B2, for which the binding result is listed as “binds”. Same read-out and setting: in the case of B3 it was “binds”; in that of B4, “binds”; in that of B5, “binds”. On the same count and under the same terms, then B6, with “binds”.

Another test has as its target T1, soluble human IL-6R. The test is described as follows: BLI (Octet) as in Example 3, 30 degrees C or 25 degrees C.
On to B7, for which the binding result is “no binding”. B8: the binding result is “no binding”. Take B9: the binding result was “no binding”.

For the molecule B10, the binding result was “no binding”. Take B11: the binding result is reported as “no binding”.

The next test concerns the target T2, human CD3ed-Fc (biotin-labeled human …). The test can be described thus: phage display: phage ELISA or panning on biotin-labeled human CD3ed-Fc (binding clone for human CD3).
Method: The obtained phages were evaluated for their binding to IL6R, CD3 or plexin A1 by ELISA. The sequence of a bound clone was analyzed by a method known to those skilled in the art to identify VHH binding to the antigen.
Phage production was performed from E. coli retaining the constructed phagemids for phage display. A phage population was precipitated by the addition of 2.5 M NaCl/10% PEG to the culture solution of the E. coli after the phage production, and then diluted with TB S to obtain a phage library solution. […] The magnetic beads used were NeutrAvidin coated beads (FG beads NeutrAvidin) or Streptavidin coated beads (Dynabeads MyOne Streptavidin T1).
Specifically, 100 pmol of the biotin-labeled antigen was added to the prepared phage library solution, and the phage library solution was contacted with the antigen at room temperature for 60 minutes. The magnetic beads blocked with BSA were added thereto, and the complexes of the antigen and the phages were bound to the magnetic beads at room temperature for 15 minutes. The beads were washed twice with 0.5 mL of TBST (TBS containing 0.1% Tween 20; TBS was manufactured by Takara Bio Inc.) and then further washed once with 0.5 mL of TBS. Then, 0.5 mL of 1 mg/mL trypsin was added thereto, and the beads were suspended at room temperature for 15 minutes and immediately thereafter, separated using a magnetic stand to recover a phage solution. The recovered phage solution was added to 20 mL of an E. coli line ER2738 in an exponential stage of growth (OD600: 0.4-0.5). The E. coli was cultured with mild stirring at 37 degrees C. for 1 hour and thereby infected by the phages.
For B12, the binding result is given as “binds”. In the case of B13, the binding result is on record as “binds”.

For B14, the binding result is given as “binds”.

The next test has as its target T1, soluble human IL-6R. The test can be described thus: BLI (Octet HTX), molecule on Protein A biosensor, hsIL-6R as analyte, 30 degrees C. As for the experimental part: The hsIL-6R binding evaluation of each molecule was conducted using Octet HTX (Pall ForteBio Corp.). Specifically, each molecule was bound to Biosensor/Protein A (ProA) (Pall ForteBio Corp., 18-5013), and hsIL-6R was allowed to act thereon, followed by binding evaluation at 30 degrees C.
For the molecule B15, the binding result was “no binding”. Still for that read-out and setting: in the case of B16 it was “no binding”; in that of B17, “no binding”. In the case of B18, the binding result is “no binding”.

In a further test the target is T2, human CD3ed-Fc (biotin-labeled human …). The test is described as follows: BLI (Octet RED) as in Example 3.
As to B19, the binding result is “no binding”.
